This is an account of results in publication doi:10.1101/2022.10.19.512833 (bioRxiv, 2022).

Usually Kd stands for a measure of binding affinity in units of concentration. Read a low Kd as tighter binding.

For the experiment, the target named is T1, human TSG101 UEV (1-145) domain (human, UniProt Q99816 1-145).
T1 sequence (looked up): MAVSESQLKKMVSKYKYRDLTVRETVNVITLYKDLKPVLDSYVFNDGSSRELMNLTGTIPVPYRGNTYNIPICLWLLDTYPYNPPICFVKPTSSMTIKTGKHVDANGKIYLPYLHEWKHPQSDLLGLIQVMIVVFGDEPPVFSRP
Put plainly: fluorescence polarisation.

As to APQGLIPTAPPADPAA [GAG (HIV-2) peptide, residues 450-465, unlabeled], the affinity, expressed as Kd, was 6 µM.

LQSRPEPTAPPEESFR (peptide, UniProt P04591 449-464, looked up) [GAG (HIV-1) residues 449-464, unlabeled peptide] registered a Kd of 15.3 µM.
